Test results published in patent publication US20160251421A1 (AstraZeneca / MedImmune, published 2016).
Numbering of substitutions follows the chain as printed.

B1: anti-Ang-2 monoclonal antibody 5.103.1 (antibody, V domains shown)
VH: QVQLVQSGAEVKKPGASVKVSCKASGYTFTGYYLYWVPQAPGQGLEWMGWISPNSGGTNYAQKFQGRVTMTRDTSISTAYMELSRLRSDDTAVYYCARDQVIAVAGPFDYWAQGTLVTVSS
VL: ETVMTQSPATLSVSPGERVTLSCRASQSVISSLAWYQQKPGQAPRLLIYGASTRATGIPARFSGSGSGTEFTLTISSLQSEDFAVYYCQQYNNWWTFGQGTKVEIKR
notes: Fully human IgG kappa from XenoMouse hybridoma (strains XMG2 and XMG4); IgG purified from hybridoma supernatant; also called mAb 5.103.1
B2: anti-Ang-2 monoclonal antibody 5.86.1 (antibody, V domains shown)
VH: B1 VH with Y33H, L34M, P38R, M48L, S52N, A97V, V101G, V104A, A112C
VL: DIRMTQSPSSLSASVGDRVTITCRASQRISTYLNWYQQKPGKAPKFLIYAASSLQSGVPSRFSGSGSGTDFTLTISSLQPEDFATYYCQQSYTTPFTFGPGTKVDIKR
notes: Fully human IgG kappa from XenoMouse hybridoma (strains XMG2 and XMG4); IgG purified from hybridoma supernatant; also called mAb 5.86.1
B3: anti-Angiopoietin-2 monoclonal antibody 3.19.3 (antibody, V domains shown)
VH: QVQLVESGGGVVQPGRSLRLSCAASGFTFTNYGMHWGRQAPGKGLEWVAVISHDGNNKYYVDSVKGRFTISRDNSKNTLYLQMNSLRAEDTAVYYCAREGIDFWSGLNWFDPWGQGTLVTVSS
VL: EIVLTQSPGTLSLSPGERATLSCRASQSITGSYLAWYQQKPGQAPRLLICGASSWATGIPDRFSGSGSGTDFTLTISRLEPEDFAVYYCQQYSSSPITFGQGTRLEIKR
notes: Fully human IgG kappa from XenoMouse hybridoma (strains XMG2 and XMG4); IgG purified from hybridoma supernatant
B4: anti-Ang-2 monoclonal antibody 5.28.1 (antibody, V domains shown)
VH: EVQLVESGGIVVQPGGSLRLSCAASGFTFDDYTMHWVRQTPGKGLEWVSLISWDGGSTYYADSVKGRFTISRDNSKNSLYLQMNSLRTEDTALYYCAKDIDIAVAGTGFDHWGQGTLVTVSS
VL: EIVMTQSPATLSVSPGERATLSCRASQSVTSNLAWYQQKPGQAPRLLIYGALIRATGIPARFSGSGSGTEFTLTISSLQSEDFAVYYCQQYNNWPFTFGPGTKVDIKR
notes: Fully human IgG kappa from XenoMouse hybridoma (strains XMG2 and XMG4); IgG purified from hybridoma supernatant; also called mAb 5.28.1
B5: anti-Ang-2 monoclonal antibody 5.88.3 (antibody, V domains shown)
VH: EVQMVESGGGLVQPGGSLRLSCAASGFTLRSYWMSWVRQAPGKGLEWVANIKEDGSEKYHVDSVKGRFTISRDNAENSLFLQMSSLRAEDTAVYYCARDMEASAGLFDYWGQGTLVTVSS
VL: EIVMTQSPATLSVSPGERAILSCRASQSISSNLAWYQQKPGQAPRLLIYGASTRATGIPARFSGSGSGTEFTLTISSLQSEDFAVYYCQQYNYWWTFGQGTKVEIKR
notes: Fully human IgG kappa from XenoMouse hybridoma (strains XMG2 and XMG4); IgG purified from hybridoma supernatant; also called mAb 5.88.3
B6: anti-Ang-2 monoclonal antibody 3.31.2 (antibody, V domains shown)
VH: EVQLVESGGGLVQPGGSLRLSCAASGFTFSSYWMSWVRQAPGKGLEWVANIKQDGSDKYYVDSVKGRFTISRDNAKNSLYLRMNSLRAEDTAVFYCARDMGSGWFDYWGQGTLVTVSS
VL: B5 VL with I2V, I20T, I29V, S30G, Y87C, Y93H
notes: Fully human IgG kappa from XenoMouse hybridoma (strains XMG2 and XMG4); IgG purified from hybridoma supernatant; also called mAb 3.31.2
B7: anti-Ang-2 monoclonal antibody 3.3.2 (antibody, V domains shown)
VH: EVQLVESGGGLVQPGGSLRLSCAVSGFTFSSYWMSWVRQAPGKGLEWVANIKQDGSEKYYVDSVKGRFTISRDNAKNSLYLQMNSLRAEDTAVYYCARDQGIAVAGPFDYWGQGTLVTVSS
VL: B5 VL with I20T, S28T, I29V, N32D, T53I, Y87S, N92Y, Y93N
notes: Fully human IgG kappa from XenoMouse hybridoma (strains XMG2 and XMG4); IgG purified from hybridoma supernatant; also called mAb 3.3.2
B8: anti-Ang-2 monoclonal antibody 5.101.1 (antibody, V domains shown)
VH: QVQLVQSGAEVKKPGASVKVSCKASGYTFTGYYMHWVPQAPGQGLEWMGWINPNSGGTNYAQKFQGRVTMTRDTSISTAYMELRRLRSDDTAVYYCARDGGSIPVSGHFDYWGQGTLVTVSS
VL: B5 VL with I20T, I29L, S30I, Y49F, Q89H, Y93N
notes: Fully human IgG kappa from XenoMouse hybridoma (strains XMG2 and XMG4); IgG purified from hybridoma supernatant; also called mAb 5.101.1

target: T1, biotinylated recombinant human Angiopoietin-2 (R&D Systems, Inc. Cat. No. BT623) (human, UniProt O15123 19-496, limits assumed, biotinylated (sites not given)); assay: competitive binding ELISA: biotinylated Angiopoietin-2 on plate-coated Tie-2/Fc, purified mAb
T1 construct: Bought reagent; also called Ang-2; Ang2
T1 sequence (looked up): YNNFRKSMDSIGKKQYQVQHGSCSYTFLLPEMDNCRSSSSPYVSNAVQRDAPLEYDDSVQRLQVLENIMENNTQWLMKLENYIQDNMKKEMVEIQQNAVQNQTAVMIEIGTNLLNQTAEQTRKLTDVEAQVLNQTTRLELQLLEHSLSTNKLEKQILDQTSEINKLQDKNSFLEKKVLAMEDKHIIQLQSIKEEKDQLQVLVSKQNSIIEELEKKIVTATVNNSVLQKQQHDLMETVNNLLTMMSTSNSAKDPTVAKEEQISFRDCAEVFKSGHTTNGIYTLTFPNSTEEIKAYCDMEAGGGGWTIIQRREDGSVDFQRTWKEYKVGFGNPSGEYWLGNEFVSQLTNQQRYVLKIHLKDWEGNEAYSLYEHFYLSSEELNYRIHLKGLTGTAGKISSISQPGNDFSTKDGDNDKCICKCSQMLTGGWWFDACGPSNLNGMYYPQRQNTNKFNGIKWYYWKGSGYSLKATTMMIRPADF

| Binder | Efficacy (ratio of bound Angiopoietin-2 with mAb (30 µg/ml) versus without mAb) [ratio] |
| --- | --- |
| B1 | 0.232 |
| B2 | 0.384 |
| B3 | 0.395 |
| B4 | 0.389 |
| B5 | 0.403 |
| B6 | 0.375 |
| B7 | 0.388 |
| B8 | 0.364 |
